Measured values as given in patent CN101798349A (INST BIOENGINEERING AMMS, dated 2010).

Molecular target: T1, uPAR蛋白 (尿激酶型纤溶酶原激活物受体, R&D Systems 807-UK-100) (UniProt Q03405 23-303, limits assumed)
T1 construct: Bought protein; also called 抗原uPAR
Assay: SPR, Biacore 3000, CM5 chip, HBS-EP pH 7.4, 0-100 nmol/L, mean of 3 repeats

T1 sequence (Q03405 23-303 limits assumed): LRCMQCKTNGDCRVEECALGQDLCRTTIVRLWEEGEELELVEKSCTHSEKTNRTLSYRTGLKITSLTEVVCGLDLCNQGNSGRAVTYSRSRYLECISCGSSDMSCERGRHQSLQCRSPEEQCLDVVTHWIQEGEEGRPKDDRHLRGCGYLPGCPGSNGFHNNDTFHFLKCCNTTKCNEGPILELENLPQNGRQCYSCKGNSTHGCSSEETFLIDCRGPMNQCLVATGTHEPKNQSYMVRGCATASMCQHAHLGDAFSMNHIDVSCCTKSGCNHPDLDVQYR

Kd: 14.9 nM
B1: 抗uPAR人源化抗体Y2B (antibody, V domains shown)
VH: EVQLVQSGAEVKKPGSSVKVSCKASGYTFTDYYIHWVRQAPGQGLEWIGWIFHGSDNTEYNEKFKSKATITADESTSTAYMELSSLRSEDTAVFYCARWGPHWYFDAWGRGTLVTVSP
VL: DIQMTQSPSTLSASVGDRVTITCRASSSVSYIHWYQQKPGRAPKPLMYEASSRATGVPSRFSGSGSGTEYTLTISSLQSDDFATYYCQQWNYPFTFGQGTKLEIKR
notes: also called 抗uPAR抗体Y2B; Y2B抗体
